Results as given in patent US20210087268A1 (YUHAN, published 2021).

What was measured:
[1] = target: T1, mouse TIGIT (R & D Systems), ELISA antigen (mouse, UniProt P86176 29-148, limits assumed); experiment: ELISA, antigen coated on the plate, 30 ng antibody per well (one amount), absorbance 450 nm
T1 sequence (looked up): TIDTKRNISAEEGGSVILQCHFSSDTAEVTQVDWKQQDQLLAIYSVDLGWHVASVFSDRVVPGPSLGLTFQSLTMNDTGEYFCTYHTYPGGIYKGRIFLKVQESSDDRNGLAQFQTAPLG
Description: In order to determine the species cross-reactivity of the anti-TIGIT antibodies screened by phage display screening, whether or not the anti-TIGIT antibodies bound to human TIGIT (R&D Systems), mouse TIGIT (R & D Systems) and rhesus TIGIT antigens was identified by ELISA. The rhesus TIGIT antigens used herein were expressed and purified in the form of Fc-fusion by gene synthesis with reference to the Rhesus TIGIT gene sequence (NCBI accession No. XP_014985303.1). Each of three types of the TIGIT antigens diluted at a concentration of […] in PBS was added at 30 μl/well to a 96-well plate and incubated overnight at 4° C. to induce coating. Then, 30 ng of the screened antibody was bound to the TIGIT antigen, and 30 μL of a TBST (5% BSA) solution diluted at 1:3,000 was added to each well and incubated at room temperature for 1 hour. After washing three times with TBST, 30 μL of the TMB solution was added to each well to induce color development. After ceasing the reaction with 1N H₂SO₄, color development was determined at an absorbance of 450 nm. The species cross-reactivity of the screened antibodies bound to […] of antigens was identified (FIG. 1).

[2] = target: T2, CD96 (Sinobiological) (UniProt P40200-2 22-503, limits assumed); experiment: ELISA, antigen coated at 100 ng/well, 30 ng antibody per well (one amount), absorbance 450 nm
T2 sequence (looked up): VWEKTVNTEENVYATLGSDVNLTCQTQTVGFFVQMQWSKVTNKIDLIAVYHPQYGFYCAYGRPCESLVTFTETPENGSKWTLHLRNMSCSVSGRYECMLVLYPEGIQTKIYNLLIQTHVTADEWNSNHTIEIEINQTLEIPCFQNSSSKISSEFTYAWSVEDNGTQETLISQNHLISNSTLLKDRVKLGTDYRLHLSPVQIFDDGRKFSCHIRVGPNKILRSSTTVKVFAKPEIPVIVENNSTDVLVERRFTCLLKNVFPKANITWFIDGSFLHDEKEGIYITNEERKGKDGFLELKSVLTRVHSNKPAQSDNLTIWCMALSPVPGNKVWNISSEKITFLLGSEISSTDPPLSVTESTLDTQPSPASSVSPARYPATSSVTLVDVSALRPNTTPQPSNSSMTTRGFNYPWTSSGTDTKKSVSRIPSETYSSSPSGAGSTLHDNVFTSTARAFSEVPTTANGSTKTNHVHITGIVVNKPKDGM
Method: (§1) The binding of the anti-TIGIT antibodies to TIGIT superfamilies such as CD96 (Sinobiological), CD155 (Sinobiological), CD112 (R&D Systems), CD113 (R&D Systems) and CD226 (R&D Systems) antigens was identified by ELISA in order to determine the TIGIT specificity of the anti-TIGIT antibodies screened by phage display screening. Six types of antigens including TIGIT were coated at 100 ng/well on a 96-well plate, treated with 30 ng of each screened antibody and incubated at room temperature for 1 hour. After washing three times with TBST, 30 μL of TBST (5% BSA) diluted at 1:3,000 with an anti-human Fab-HRP secondary antibody (Jackson) was added to each well and incubated at room temperature for 1 hour. After washing three times with TBST, 30 μL of the resulting TMB solution was added to each well. After ceasing the reaction with 1N H₂SO₄, color development was determined at an absorbance of 450 nm. The binding of the selected antibodies to the six antigens was identified. As a result, it can be seen that all the antibodies specifically bound only to the TIGIT antigen (FIG. 2).

[3] = target: T3, CD155 (Sinobiological), ELISA antigen (UniProt P15151 21-343); experiment: as above
T3 sequence (looked up): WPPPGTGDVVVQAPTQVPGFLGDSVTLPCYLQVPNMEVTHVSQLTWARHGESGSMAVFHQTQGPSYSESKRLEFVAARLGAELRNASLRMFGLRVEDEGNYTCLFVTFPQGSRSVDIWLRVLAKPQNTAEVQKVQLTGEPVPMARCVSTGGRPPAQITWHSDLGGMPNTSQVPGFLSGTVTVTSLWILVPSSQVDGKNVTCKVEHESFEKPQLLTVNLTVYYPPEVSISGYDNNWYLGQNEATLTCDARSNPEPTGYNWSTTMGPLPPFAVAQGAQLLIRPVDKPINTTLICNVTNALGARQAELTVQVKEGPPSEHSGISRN
Method: as §1

[4] = target: T4, CD112 (R&D Systems) (UniProt Q92692 32-360, limits assumed); experiment: as above
T4 sequence (looked up): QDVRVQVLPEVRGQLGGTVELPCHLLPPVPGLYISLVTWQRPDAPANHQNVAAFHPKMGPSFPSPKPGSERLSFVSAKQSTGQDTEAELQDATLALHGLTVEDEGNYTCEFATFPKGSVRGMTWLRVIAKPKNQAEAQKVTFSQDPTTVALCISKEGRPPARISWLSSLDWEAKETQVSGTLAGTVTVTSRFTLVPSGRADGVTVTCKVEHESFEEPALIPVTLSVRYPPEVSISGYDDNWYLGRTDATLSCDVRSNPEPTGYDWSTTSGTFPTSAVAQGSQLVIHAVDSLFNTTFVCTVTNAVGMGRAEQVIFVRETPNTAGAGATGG
Method: as §1

[5] = target: CD113 (R&D Systems) (UniProt Q9NQS3 58-404, limits assumed); experiment: as above
Method: as §1

[6] = target: T5, CD226 (R&D Systems) (UniProt Q15762 19-247, limits assumed); experiment: as above
T5 sequence (looked up): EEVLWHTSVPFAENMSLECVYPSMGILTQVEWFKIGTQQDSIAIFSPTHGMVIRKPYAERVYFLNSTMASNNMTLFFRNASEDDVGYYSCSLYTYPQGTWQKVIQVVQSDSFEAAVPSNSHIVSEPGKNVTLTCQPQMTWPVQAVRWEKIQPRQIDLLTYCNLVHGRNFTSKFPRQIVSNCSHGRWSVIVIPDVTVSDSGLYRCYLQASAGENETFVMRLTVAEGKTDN
Method: as §1

CD113 (R&D Systems), sequence (Q9NQS3 58-404 limits assumed): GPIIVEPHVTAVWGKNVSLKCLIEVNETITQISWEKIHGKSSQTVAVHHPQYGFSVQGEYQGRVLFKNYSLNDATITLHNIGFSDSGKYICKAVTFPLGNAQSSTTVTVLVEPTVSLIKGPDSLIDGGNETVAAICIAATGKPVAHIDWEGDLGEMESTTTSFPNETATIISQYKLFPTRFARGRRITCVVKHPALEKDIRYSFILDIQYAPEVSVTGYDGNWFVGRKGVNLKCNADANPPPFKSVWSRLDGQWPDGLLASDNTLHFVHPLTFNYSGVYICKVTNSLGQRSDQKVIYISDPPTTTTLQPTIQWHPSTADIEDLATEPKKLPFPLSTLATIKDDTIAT

B1: S64 (IgG1 form) (antibody, V domains shown)
VH: EVQLLESGGGLVQPGGSLRLSCAASGFTFSNYAMSWVRQAPGKGLEWVSAIYPGGGSIYYADSVKGRFTISRDNSKNTLYLQMNSLRAEDTAVYYCAKAIRTCSLSHCYYYYGMDVWGQGTLVTVSS
VL: QSVLTQPPSASGTPGQRVTISCSCSSSNIGNNAVSWYQQLPGTAPKLLIYYDSNRPSGVPDRFSGSKSGTSASLAISGLRSEDEADYYCGSWDYSLSAYVFGGGTKLTVLG
B1: binds [1]; no binding (tested: 30 ng per well) [2]; no binding (tested: 30 ng per well) [3]. B1: no binding (tested: 30 ng per well) [4]; no binding (tested: 30 ng per well) [5]; no binding (tested: 30 ng per well) [6].

B2: F04 (IgG1 form) (antibody, V domains shown)
VH: EVQLLESGGGLVQPGGSLRLSCAASGFTFSSYYMSWVRQAPGKGLEWVSSIGSYYTYYADSVKGRFTISRDNSKNTLYLQMNSLRAEDTAVYYCARSSYSGGNGYYYYAYAFDYWGQGTLVTVSS
VL: EIVLTQSPGTLSLSPGERATLSCRASQSVSSSYLAWYQQKPGQAPRLLIYGASSRATGIPDRFSGSGSGTDFTLTISRLEPEDFAVYYCQQGYHRYATFGQGTKVEIK
B2: binds [1]; no binding (tested: 30 ng per well) [2]; no binding (tested: 30 ng per well) [3]. B2: no binding (tested: 30 ng per well) [4]; no binding (tested: 30 ng per well) [5]; no binding (tested: 30 ng per well) [6].
